“And” between values parts separate entries of the source, which are not always exact repeats. Equal entries are not always repeated.

The source of these data is article PMC2834417.

The assay concerns the target Wild type Cav1.2 channel with EGFP fused to its C-terminus (rabbit) (UniProt P15381). As to the kind of experiment: FRET or BRET. For orientation: Bioluminescence resonance energy transfer reports proximity on the nanometre scale.
Chain of UniProt P15381 (P15381 whole entry, the tested form may be a part): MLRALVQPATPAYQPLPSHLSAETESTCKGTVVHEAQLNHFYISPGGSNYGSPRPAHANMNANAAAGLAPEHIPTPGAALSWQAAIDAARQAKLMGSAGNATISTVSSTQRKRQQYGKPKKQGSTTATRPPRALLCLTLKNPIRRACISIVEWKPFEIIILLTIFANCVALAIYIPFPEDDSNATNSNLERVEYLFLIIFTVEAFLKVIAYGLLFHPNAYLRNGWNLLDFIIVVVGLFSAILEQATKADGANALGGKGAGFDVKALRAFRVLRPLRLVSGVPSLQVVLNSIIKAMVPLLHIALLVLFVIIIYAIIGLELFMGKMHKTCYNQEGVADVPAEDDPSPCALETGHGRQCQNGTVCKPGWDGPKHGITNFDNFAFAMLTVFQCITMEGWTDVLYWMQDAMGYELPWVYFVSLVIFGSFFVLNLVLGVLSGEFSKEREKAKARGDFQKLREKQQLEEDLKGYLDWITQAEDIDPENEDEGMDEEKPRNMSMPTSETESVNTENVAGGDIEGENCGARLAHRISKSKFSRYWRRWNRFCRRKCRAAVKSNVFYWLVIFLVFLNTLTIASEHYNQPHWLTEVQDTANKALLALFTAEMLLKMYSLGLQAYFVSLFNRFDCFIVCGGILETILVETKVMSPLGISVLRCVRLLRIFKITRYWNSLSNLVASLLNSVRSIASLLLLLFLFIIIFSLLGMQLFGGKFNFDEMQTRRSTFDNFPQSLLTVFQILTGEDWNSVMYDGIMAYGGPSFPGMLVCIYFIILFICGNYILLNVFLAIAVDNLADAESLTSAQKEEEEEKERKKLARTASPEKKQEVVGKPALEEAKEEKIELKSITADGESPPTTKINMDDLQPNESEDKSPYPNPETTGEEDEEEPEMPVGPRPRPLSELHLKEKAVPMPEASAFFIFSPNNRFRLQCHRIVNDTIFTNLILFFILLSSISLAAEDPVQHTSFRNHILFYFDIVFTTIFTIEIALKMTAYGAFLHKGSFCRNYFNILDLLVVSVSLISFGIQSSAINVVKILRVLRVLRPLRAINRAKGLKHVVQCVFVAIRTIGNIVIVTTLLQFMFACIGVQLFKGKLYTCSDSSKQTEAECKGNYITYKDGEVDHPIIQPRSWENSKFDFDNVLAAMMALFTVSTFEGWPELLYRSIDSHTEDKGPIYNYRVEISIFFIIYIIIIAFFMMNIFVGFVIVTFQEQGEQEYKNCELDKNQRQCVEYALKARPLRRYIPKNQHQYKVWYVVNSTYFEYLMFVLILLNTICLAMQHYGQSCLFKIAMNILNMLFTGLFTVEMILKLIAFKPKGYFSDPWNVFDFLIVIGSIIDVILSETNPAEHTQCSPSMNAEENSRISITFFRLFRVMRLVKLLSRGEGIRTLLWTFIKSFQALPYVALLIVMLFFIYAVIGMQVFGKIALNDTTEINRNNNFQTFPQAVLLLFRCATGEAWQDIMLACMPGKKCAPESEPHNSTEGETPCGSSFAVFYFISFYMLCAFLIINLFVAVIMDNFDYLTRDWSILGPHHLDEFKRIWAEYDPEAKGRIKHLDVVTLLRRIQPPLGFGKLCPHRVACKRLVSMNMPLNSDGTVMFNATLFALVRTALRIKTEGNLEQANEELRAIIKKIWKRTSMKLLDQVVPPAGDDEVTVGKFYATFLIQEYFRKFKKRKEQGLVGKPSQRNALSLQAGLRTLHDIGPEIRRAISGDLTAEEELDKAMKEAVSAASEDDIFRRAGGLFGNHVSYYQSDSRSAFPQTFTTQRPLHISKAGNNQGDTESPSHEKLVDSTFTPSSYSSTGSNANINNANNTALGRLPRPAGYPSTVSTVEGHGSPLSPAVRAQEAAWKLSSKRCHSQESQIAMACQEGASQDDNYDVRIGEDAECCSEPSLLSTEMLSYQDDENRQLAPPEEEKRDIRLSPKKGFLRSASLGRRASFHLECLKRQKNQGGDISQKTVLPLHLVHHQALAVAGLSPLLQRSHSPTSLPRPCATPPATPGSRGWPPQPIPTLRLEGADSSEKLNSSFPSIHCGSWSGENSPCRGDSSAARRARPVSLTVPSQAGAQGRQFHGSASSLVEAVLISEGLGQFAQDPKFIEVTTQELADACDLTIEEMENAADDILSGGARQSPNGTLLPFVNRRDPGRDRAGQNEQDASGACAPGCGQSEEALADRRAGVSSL

On to “Calmodulin fused with tag-RFP (from UniProt P0DP23 1-149) (natural protein)”, for which the FRET was 0.32 and 0.21 and 0.33.
